Assay results as given in US20240052042A1 (Novartis, published 2024).

T1: rat NPR1 (rNPR1) (rat, UniProt P18910 29-469, limits assumed)
T1 construct: Soluble antigen
T1 sequence: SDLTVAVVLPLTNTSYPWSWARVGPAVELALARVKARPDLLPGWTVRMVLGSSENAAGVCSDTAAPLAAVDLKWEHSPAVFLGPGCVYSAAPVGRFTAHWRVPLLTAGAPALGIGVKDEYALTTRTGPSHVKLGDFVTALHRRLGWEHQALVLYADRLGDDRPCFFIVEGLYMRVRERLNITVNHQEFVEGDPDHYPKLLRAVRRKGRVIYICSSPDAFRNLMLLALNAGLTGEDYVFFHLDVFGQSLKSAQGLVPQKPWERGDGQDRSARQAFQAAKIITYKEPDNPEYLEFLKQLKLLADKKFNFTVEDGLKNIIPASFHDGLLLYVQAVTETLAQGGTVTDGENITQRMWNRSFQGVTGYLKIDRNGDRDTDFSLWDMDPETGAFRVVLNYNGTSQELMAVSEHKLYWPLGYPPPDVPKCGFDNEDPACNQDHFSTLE

T2: human Natriuretic Peptide Receptor 1 (hNPR1) (human, UniProt P16066 33-473, limits assumed)
T2 construct: pannings used NPR1-hFc; also called NPR1-hFc
T2 sequence: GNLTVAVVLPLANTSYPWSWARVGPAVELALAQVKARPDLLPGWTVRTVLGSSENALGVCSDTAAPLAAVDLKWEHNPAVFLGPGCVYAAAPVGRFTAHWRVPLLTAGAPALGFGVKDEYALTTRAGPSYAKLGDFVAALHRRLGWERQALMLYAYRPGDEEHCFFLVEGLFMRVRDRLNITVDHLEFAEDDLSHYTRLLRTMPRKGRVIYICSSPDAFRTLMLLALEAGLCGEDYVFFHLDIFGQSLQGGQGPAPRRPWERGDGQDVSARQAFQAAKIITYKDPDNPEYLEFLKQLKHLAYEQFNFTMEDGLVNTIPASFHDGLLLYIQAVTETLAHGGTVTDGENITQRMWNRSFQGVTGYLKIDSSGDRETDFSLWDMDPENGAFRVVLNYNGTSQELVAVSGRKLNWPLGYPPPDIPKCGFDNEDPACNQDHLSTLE

T3: hNPR1-ANP complex (human, UniProt P01160 124-151, limits assumed)
T3 construct: hNPR1 antigen in the presence of ANP; also called hNPR1 + 100 nM ANP
T3 sequence: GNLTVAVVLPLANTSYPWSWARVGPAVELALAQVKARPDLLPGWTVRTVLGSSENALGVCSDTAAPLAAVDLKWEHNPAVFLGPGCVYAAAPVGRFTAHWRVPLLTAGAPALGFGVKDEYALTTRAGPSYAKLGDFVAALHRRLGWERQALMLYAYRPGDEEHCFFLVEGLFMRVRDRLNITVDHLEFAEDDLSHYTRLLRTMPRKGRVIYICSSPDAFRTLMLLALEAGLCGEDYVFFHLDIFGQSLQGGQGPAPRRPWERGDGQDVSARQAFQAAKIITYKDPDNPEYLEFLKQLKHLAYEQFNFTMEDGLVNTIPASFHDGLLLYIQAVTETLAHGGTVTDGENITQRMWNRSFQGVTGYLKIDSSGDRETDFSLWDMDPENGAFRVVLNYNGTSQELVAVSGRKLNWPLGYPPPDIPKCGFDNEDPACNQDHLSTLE
T3 sequence (peptide): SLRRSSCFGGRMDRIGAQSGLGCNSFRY

T4: rNPR1-ANP complex (rat, UniProt P01160 124-151 (human entry), limits assumed)
T4 construct: rNPR1 antigen in the presence of ANP; also called rNPR1 + 100 nM ANP
T4 sequence: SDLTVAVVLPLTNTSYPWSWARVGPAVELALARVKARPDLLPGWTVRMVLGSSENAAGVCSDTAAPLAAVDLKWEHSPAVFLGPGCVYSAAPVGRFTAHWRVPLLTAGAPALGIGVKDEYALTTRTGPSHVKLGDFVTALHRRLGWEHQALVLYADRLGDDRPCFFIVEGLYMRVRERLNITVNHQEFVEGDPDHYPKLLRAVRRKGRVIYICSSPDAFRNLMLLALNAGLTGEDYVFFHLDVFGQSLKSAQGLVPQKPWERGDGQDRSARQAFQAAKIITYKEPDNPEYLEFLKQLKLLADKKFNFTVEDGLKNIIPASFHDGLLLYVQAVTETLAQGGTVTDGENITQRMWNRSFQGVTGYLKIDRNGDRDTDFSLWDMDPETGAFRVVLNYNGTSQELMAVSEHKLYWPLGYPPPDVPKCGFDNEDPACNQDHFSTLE
T4 sequence (peptide): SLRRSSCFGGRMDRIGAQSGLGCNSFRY


Key:
rat NPR1 (rNPR1) [1] = biological target: T1, rat NPR1 (rNPR1); experiment: FabCys affinity determination
[2] = biological target: T2, human Natriuretic Peptide Receptor 1 …; experiment: FabCys affinity determination
hNPR1-ANP complex [3] = biological target: T3, hNPR1-ANP complex; experiment: FabCys affinity determination
rNPR1-ANP complex [4] = biological target: T4, rNPR1-ANP complex; experiment: FabCys affinity determination
hNPR1-ANP complex [5] = biological target: T3, hNPR1-ANP complex; experiment: Octet, FabCys
rNPR1-ANP complex [6] = biological target: T4, rNPR1-ANP complex; experiment: Octet, FabCys
rat NPR1 (rNPR1) [7] = biological target: T1, rat NPR1 (rNPR1); experiment: SET, FabCys
[8] = biological target: T2, human Natriuretic Peptide Receptor 1 …; experiment: SET, FabCys
hNPR1-ANP complex [9] = biological target: T3, hNPR1-ANP complex; experiment: SET, FabCys
rNPR1-ANP complex [10] = biological target: T4, rNPR1-ANP complex; experiment: SET, FabCys

Kd (rat NPR1 (rNPR1) [1]) [nM]	Kd [2] [nM]	Kd (hNPR1-ANP complex [3]) [nM]	Kd (rNPR1-ANP complex [4]) [nM]	Kd (hNPR1-ANP complex [5]) [nM]	Kd (rNPR1-ANP complex [6]) [nM]	Kd (rat NPR1 (rNPR1) [7]) [nM]	Kd [8] [nM]	Kd (hNPR1-ANP complex [9]) [nM]	Kd (rNPR1-ANP complex [10]) [nM]	Binder
280	45	1.1	4.4	–	–	–	–	–	–	YY02 (FabCys format) (Fab, V domains shown, Monovalent FabCys) VH: EVQLVESGGGLVKPGGSLRLSCAASGFTFSSYSMNWVRQAPGKGLEWVSSISSSSSYIYYADSVKGRFTISRDNAKNSLYLQMNSLRAEDTAVYYCARSGYRGVYGFDYWGQGTLVTVSS VL: DIQMTQSPSSVSASVGDRVTITCRASQGISSWLAWYQQKPGKAPKLLIYAASSLQSGVPSRFSGSGSGTDFTLTISSLQPEDFATYYCQQYYHSPLTFGQGTKVEIK
0.1	–	0.1	0.1	–	–	–	–	–	–	YY03 (FabCys format) (Fab, V domains shown, Monovalent FabCys) VH: EVQLLESGGGLVQPGGSLRLSCAASGFTFSSYAISWVRQAPGKGLEWVSAISGSGGSTYYAESVKGRFTISRDNSKNTLYLQMNSLRAEDTAVYYCARESGYVYYLKFDYWGQGTLVTVSS VL: DIQMTQSPSSLSASVGDRVTITCRASQSISSYLNWYQQKPGKAPKLLIYAASSLQSGVPSRFSGSGSGTDFTLTISSLQPEDFATYYCQQHVRVPITFGQGTKVEIK
–	–	–	–	0.04	0.1	2.1	6.7	0.32	1.4	ZZ12 (FabCys format) (Fab, V domains shown, Monovalent FabCys) VH: EVQLVESGGGLVQPGGSLRLSCAASGFSFSKYYLNWVRQAPGKGLEWVASIHQQAHEKKYVESVKGRFTISRDNAKNSLYLQMNSLRAEDTAVYYCARSLRRRSTEHAGFDVWGQGTLVTVSS VL: DIQMTQSPSSLSASVGDRVTITCRASQGISNYLAWYQQKPGKVPKLLIYAASTLQSGVPSRFSGSGSGTDFTLTISSLQPEDVATYYCQQADKFPYTFGQGTKVEIK
